# Results reported in patent publication US20230125301A1 (published 2023).
# Where two headings read alike, the source gives them in different places.
# B1: CLDN18L-E-pdl1a (bispecific antibody)
# heavy: not shown
# light: DIVMTQSPLSLPVTPGEPASISCKSSQTLLNSGNQKNYLTWYLQKPGQSPQLLIYWASTGESGVPDRFSGSGSGTDFTLKISRVEAEDVGVYYCQNAYFYPFTFGGGTKVEIKRTVAAPSVFIFPPSDEQLKSGTASVVCLLNNFYPREAKVQWKVDNALQSGNSQESVTEQDSKDSTYSLSSTLTLSKADYEKHKVYACEVTHQGLSSPVTKSFNRGECEPKSSDKTHTSPPSPEVQLVESGGGLVQPGGSLRLSCAASGRTFVTYGMGWFRQAPGKGREFVSAISWSGSMTSYGDSVKGRFTISRDNAKNTLYLQMNSLRPEDTAVYYCAAALGAVVYTTREPYTYWGQGTLVTVSS
# How the values were obtained:
# Experiment in all cases: FACS binding, CHO-K1 cells
# [1] = target: T1, human PD-L1 (human, UniProt Q9NZQ7 19-290)
# T1 sequence (Q9NZQ7 19-290): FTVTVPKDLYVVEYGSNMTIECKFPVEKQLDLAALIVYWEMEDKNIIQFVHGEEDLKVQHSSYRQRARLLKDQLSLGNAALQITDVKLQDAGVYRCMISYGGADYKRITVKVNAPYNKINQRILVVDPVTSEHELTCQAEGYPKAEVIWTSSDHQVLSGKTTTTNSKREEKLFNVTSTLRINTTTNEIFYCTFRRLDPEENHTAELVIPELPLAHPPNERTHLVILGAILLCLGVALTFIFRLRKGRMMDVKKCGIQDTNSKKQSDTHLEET
# [2] = target: T1, human PD-L1; remark: listed apart in the source
# [3] = target: T1, human PD-L1; remark: listed apart in the source
binder,measurement,setting,value
B1,EC50,[1],0.215 nM
same,EC50,[2],0.34 nM
same,EC50,[3],0.262 nM
